# Laboratory results reported in the RNAGym collection of RNA variant scans (doi:10.7554/elife.80360).
# B1: HDV Ribozyme (parent)
# chain: GGCCGGCAUGGUCCCAGCCUCCUCGCUGGCGCCGGCUGGGCAACAUUCCGAGGGGACCGUCCCCUCGGUAAUGGCGAAUGGGACCCA
# Variants of: B1
# Assay: self-cleavage, relative activity (ratio to wild type); higher = more cleavage; co-transcriptional
row,Variant,self-cleavage
1,GGCCGGCCUGGUCCCAGCCUCCUCGCUGGCACCGGCUGGGCAACAUUCCGAGGGGACCGUCCCCUCGGUAAUGGCGAAUGGGACCCA [A8C G31A],0.162
2,GGCCGGCCUGGUCCCAGCCUCCUCGCUGGCGCCGGCUGGGCAACAUUCCGAGGGGACCGUCCCCUCGGUAAUCGCGAAUGGGACCCA [A8C G73C],0.115
3,GGCCGGCCUGGUCCCAGCCUCCUCGCUGGCGCCGGCUGGGCAACAUUCCGAGGGGACCGUCCCCUCGGUAAUGGCGAAUGGGAUCCA [A8C C84U],0.462
4,GGCCGGCCUGGUCCCAGCCUCCUCGCUGGCGCCGGCUGGGCAACAUUCCGAGGGGACCGUCCCCUCGGUAAUGGCGAAUGGGAACCA [A8C C84A],0.751
5,GGCCGGCCUGGUCCCAGCCUCCUCGCUGGCGCCGGCUGGGCAACAUUCCGAGGGGACCGUCACCUCGGUAAUGGCGAAUGGGACCCA [A8C C62A],0.918
6,GGCCGGCCUGGUCCCAGCCUCCUCGCUGGCGCCGGCUGGGCAACAUUCCGAGGGGACCGUCGCCUCGGUAAUGGCGAAUGGGACCCA [A8C C62G],0.475
7,GGCCGGCCUGGUCCCAGCCUCCUCGCUGGCGCCGGCUGGGCAACAUUCCGAGGGGACCGUCCCCUCGGUAAUGGCGAAUGGGACGCA [A8C C85G],0.798
8,GGCCGGCCUGGUCCCAGCCUCCUCGCUGGCGCCGGCUGGGCAACAUUCCGAGGGGACCGUCCCCUCGGUAAUGGCGAAUGGGACACA [A8C C85A],0.831
9,GGCCGGCCCGGUCCCAGCCUCCUCGCUGGCGCCGGCUGGGCAACAUUCCGAGGGGACCGUCCCCUCGGUAAUGGCGAAUGGGACCCA [A8C U9C],0.962
10,GGCCGGCCAGGUCCCAGCCUCCUCGCUGGCGCCGGCUGGGCAACAUUCCGAGGGGACCGUCCCCUCGGUAAUGGCGAAUGGGACCCA [A8C U9A],0.755
11,GGCCGGCCGGGUCCCAGCCUCCUCGCUGGCGCCGGCUGGGCAACAUUCCGAGGGGACCGUCCCCUCGGUAAUGGCGAAUGGGACCCA [A8C U9G],0.692
12,GGCCGGCCUGGUCCCAGCCUCCUCGCUAGCGCCGGCUGGGCAACAUUCCGAGGGGACCGUCCCCUCGGUAAUGGCGAAUGGGACCCA [A8C G28A],0.252
13,GGCCGGCCUGGUCCCAGCCUCCUCGCUUGCGCCGGCUGGGCAACAUUCCGAGGGGACCGUCCCCUCGGUAAUGGCGAAUGGGACCCA [A8C G28U],0.0978
14,GGCCGGCCUGGUCCCAGCCUCCUCGCUGGCGCCGGCUGGGCAACAUUCCGAGGGGACCGUCCCCUCGGUAAUGGCAAAUGGGACCCA [A8C G76A],0.95
15,GGCCGGCCUGGUCCCAGCCUCCUCGCUGGCGCCGGCUGGGCAACAUUCCGAGGGGACCGUCCCCUCGGUAAUGGCUAAUGGGACCCA [A8C G76U],0.785
16,GGCCGGCCUGGUCCCACCCUCCUCGCUGGCGCCGGCUGGGCAACAUUCCGAGGGGACCGUCCCCUCGGUAAUGGCGAAUGGGACCCA [A8C G17C],0
17,GGCCGGCCUGAUCCCAGCCUCCUCGCUGGCGCCGGCUGGGCAACAUUCCGAGGGGACCGUCCCCUCGGUAAUGGCGAAUGGGACCCA [A8C G11A],0.229
18,GGCCGGCCUGCUCCCAGCCUCCUCGCUGGCGCCGGCUGGGCAACAUUCCGAGGGGACCGUCCCCUCGGUAAUGGCGAAUGGGACCCA [A8C G11C],0.151
19,GGCCGGCCUGGUCCCAGCCUCCUCGCUGGCGCCGGCUGGGCAACAUUCCGAGGGGACCGUCCCGUCGGUAAUGGCGAAUGGGACCCA [A8C C64G],0.415
20,GGCCGGCCUGGUCCCAGCCUCCUCGCUGGCGCCGGCUGGGCAACAUUCCGAGGGGACCGUCCCAUCGGUAAUGGCGAAUGGGACCCA [A8C C64A],0.639
21,GGCCGGCCUGGUCCCAGCCUCCUCGCUGGCGCCGGCUGGGCAACAUUCCGAGGGGACCGUCCCUUCGGUAAUGGCGAAUGGGACCCA [A8C C64U],0.923
22,GGCCGGCCUGGUCCCAGCCUCCUCGCUGGCGCCGGCUGGGCAACAUUCCGAUGGGACCGUCCCCUCGGUAAUGGCGAAUGGGACCCA [A8C G52U],0.566

row,Variant,self-cleavage
1,GGCCGGCCUGGUCCCAGCCUCCUCGCUGGCGCCGGCUGGGCAACAUUCCGAAGGGACCGUCCCCUCGGUAAUGGCGAAUGGGACCCA [A8C G52A],0.831
2,GGCCGGCCUGGUCCCAGCCUCCUCGCUGGCGCCGGCUCGGCAACAUUCCGAGGGGACCGUCCCCUCGGUAAUGGCGAAUGGGACCCA [A8C G38C],0.0978
3,GGCCGGCCUGGUCCCAGCCUCCUCGCUGGCGCCGGCUAGGCAACAUUCCGAGGGGACCGUCCCCUCGGUAAUGGCGAAUGGGACCCA [A8C G38A],0.0369
4,GGCCGGCCUGGUCCCAGCCUCCUCGCUGGCGCCGGCUGGGCAACAUUCCGAGGGGACCGUCCCCUCGGUAAUGGCGAAUGGAACCCA [A8C G82A],0.172
5,GGCCGGCCUGGUCCCAGCCUCCUCGCUGGCGCCGGCUGGGCAACAUUCCGAGGGGACCGUCCCCUCGGUAAUGCCGAAUGGGACCCA [A8C G74C],0.269
6,GGCCGGCCUGGUCCCAGCCUCCUCGCUGGCGCCGGCUGGGCAACAUUCCGAGGGGACCGUCCCCUCGGUAAUGUCGAAUGGGACCCA [A8C G74U],0.475
7,GGCCGGCCUGGUCCCAGCCUCCUCGCUGGCGCCGGCUGGGCAACAUUCCGAGGGGACCGUCCCCUCGGUAAUGGAGAAUGGGACCCA [A8C C75A],0.128
8,GGCCGGCCUGGUCCCAGCCUCCUCGCUGGCGCCGGCUGGGCAACAUUCCGAGGGGACCGUCCCCUCGGUAAUGGGGAAUGGGACCCA [A8C C75G],0.277
9,GGCCGGCCUGGUCCCAGCCUCCUCGCUGGCGCCGGCUGGGCAACAUUCCGAGGGGACCGUUCCCUCGGUAAUGGCGAAUGGGACCCA [A8C C61U],0.643
10,GGCCGGCCUGGUCCCAGCCUCCUCGCUGGCGCCGCCUGGGCAACAUUCCGAGGGGACCGUCCCCUCGGUAAUGGCGAAUGGGACCCA [A8C G35C],0
11,GGCCGGCCUGGUCCCAGCCUCCUCGCUGGCGCCGUCUGGGCAACAUUCCGAGGGGACCGUCCCCUCGGUAAUGGCGAAUGGGACCCA [A8C G35U],0.269
12,GGCCGGCCUGGUCCCAGCCUCCUCGCUGGCGCCUGCUGGGCAACAUUCCGAGGGGACCGUCCCCUCGGUAAUGGCGAAUGGGACCCA [A8C G34U],0.104
13,GGCCGGCCUGGUCCCAGCCUCCUCGCUGGCGCCCGCUGGGCAACAUUCCGAGGGGACCGUCCCCUCGGUAAUGGCGAAUGGGACCCA [A8C G34C],0.178
14,GGCCGGCCUGGCCCCAGCCUCCUCGCUGGCGCCGGCUGGGCAACAUUCCGAGGGGACCGUCCCCUCGGUAAUGGCGAAUGGGACCCA [A8C U12C],0.208
15,GGCCGGCCUGGUCCCAGCCUCCUCGCUGGCGCCGGCUGGGCAACAUUCCGAGGGGACCGUCCCCUUGGUAAUGGCGAAUGGGACCCA [A8C C66U],0.76
16,GGCCGGCCUGGUCCCAGCCUCCUCGCUGGCGCCGGCUGGGCAACAUUCCGAGGGGACCGUCCCCUGGGUAAUGGCGAAUGGGACCCA [A8C C66G],0.997
17,GGCCGGCCUGGUCCCAGCCUCCUCGCUGGCGCCGGCUGGGCAACAUUCCGAGGCGACCGUCCCCUCGGUAAUGGCGAAUGGGACCCA [A8C G54C],0.746
18,GGCCGGCCUGGUCCCAGCCUCCUCGCUGGCGCCGGCUGGGCAACAUUCCGAGGGGACCGUCCCCUCGAUAAUGGCGAAUGGGACCCA [A8C G68A],0.554
19,GGCCGGCCUGGUCCCAGCCUCCUCGCUGGCGCCGGCUGGGCAACAUUCCGAGGGGACCGUCCCCUCGUUAAUGGCGAAUGGGACCCA [A8C G68U],0.943
20,GGCCGGCCUGGUCCCAGCCUCCUCGCUGGCGCCGGCUGGGCAACAUUCCGAGGGGACCGUCCCCUCGGUAAUGGCGAAUUGGACCCA [A8C G80U],0.07
21,GGCCGGCCUGGUCCCAGCCUCCUCGCUGGCGCCGGCUGGGCAACAUUCCGAGGGGACCGUCCCCUCGGUAAUGGCGAAUAGGACCCA [A8C G80A],0.326
22,GGCCGGCCUGGUCCCAGCCUCCUCGCUGGCGCCGGCUGGACAACAUUCCGAGGGGACCGUCCCCUCGGUAAUGGCGAAUGGGACCCA [A8C G40A],0.511

row,Variant,self-cleavage
1,GGCCGGCCUGGUCCCAGCCUCCUCGCUGGCGCCGGCUGGGCAACAUUCCGAGGGGACCGUCCCCUCGGUAAUGGCGAAUGCGACCCA [A8C G81C],0.166
2,GGCCGGCCUGGUCCCAGCCUCCUCGCUGGCGCCGGCUGGGCAACAUUCCGAGGGGACCGUCCCCUCGGUAAUGGCGAAUGUGACCCA [A8C G81U],0.201
3,GGCCGGCCUGGUCCCAGCCUCCUCGCUGGCGCCGGCUGGGCAACAUUCCGAGCGGACCGUCCCCUCGGUAAUGGCGAAUGGGACCCA [A8C G53C],0.739
4,GGCCGGCCUGGUCCCAGCCUCCUCGCUGGCGCCGGCUGGGCAACAUUCCGAGGGGACCGUCCUCUCGGUAAUGGCGAAUGGGACCCA [A8C C63U],0.633
5,GGCCGGCCUGGUCCCAGCCUCCUCGCUGACGCCGGCUGGGCAACAUUCCGAGGGGACCGUCCCCUCGGUAAUGGCGAAUGGGACCCA [A8C G29A],0.18
6,GGCCGGCCUGGUCCCAGCCUCCUCGCUGCCGCCGGCUGGGCAACAUUCCGAGGGGACCGUCCCCUCGGUAAUGGCGAAUGGGACCCA [A8C G29C],0
7,GGCCGGCCUGGUCCCAGCCUCCUCGCUGUCGCCGGCUGGGCAACAUUCCGAGGGGACCGUCCCCUCGGUAAUGGCGAAUGGGACCCA [A8C G29U],0.151
8,GGCCGGCCUGGUCCCAGCCUCCUCGCUGGCGCCGGCUGGGCAACAUUCCGAGGGCACCGUCCCCUCGGUAAUGGCGAAUGGGACCCA [A8C G55C],1.03
9,GGCCGGCCUGGUCCCAGCCUCCUCGCUGGCGCCGGCUGGGCAACAUUCCGAGGGUACCGUCCCCUCGGUAAUGGCGAAUGGGACCCA [A8C G55U],0.831
10,GGCCGGCCUGGUCCCAGCCUCCUCGCUGGCGCCGGCUGGGCAACAUUCCUAGGGGACCGUCCCCUCGGUAAUGGCGAAUGGGACCCA [A8C G50U],0.864
11,GGCCGGCCUGGUCCCAGCCUCCUCGCUGGCGCCGGCUGGGCAACAUUCCCAGGGGACCGUCCCCUCGGUAAUGGCGAAUGGGACCCA [A8C G50C],1.04
12,GGCCGGCCUGGUCCCAGCCUCCUCGCUGGCGCCGGCUGGGCAACAUUCCGAGGGGACCGUCCCCUCUGUAAUGGCGAAUGGGACCCA [A8C G67U],0.739
13,GGCCGGCCUGGUCCCAGCCUCCUCGCUGGCGCCGGCUGGGCAACAUUCCGAGGGGACCGUCCCCUCCGUAAUGGCGAAUGGGACCCA [A8C G67C],0.623
14,GGCCGGCCUGGUCCCAGCCUCCUCGCUGGCGCCGGCUGGGCAACAUUCCGAGGGGACCGUCCCCUCAGUAAUGGCGAAUGGGACCCA [A8C G67A],0.898
15,GGCCGGCCUGGUCCCAGCCUCCUCGCUGGCGCCGGCUGGGCAACAUUCCGAGGGGACCGUCCCCUCGGUAAUGGCGAAUGGGACCAA [A8C C86A],0.72
16,GGCCGGCCUGGUCCCAGCCUCCUCGCUGGCGCCGGCUGGGCAACAUUCCGAGGGGACCGUCCCCUCGGUAAUGGCGAAUGGGACCUA [A8C C86U],0.862
17,GGCCGGCCUGGUCCCAGCCUCCUCGCUGGCGCCGGCUGGGCAACAUUCCGAGGGGACGGUCCCCUCGGUAAUGGCGAAUGGGACCCA [A8C C58G],0.68
18,GGCCGGCCUGGUCCCAGCCUCCUCGCUGGCGCCGGCUGGGCAACAUUCCGAGGGGACAGUCCCCUCGGUAAUGGCGAAUGGGACCCA [A8C C58A],0.692
19,GGCCGGCCUGGUCCCAGCCUCCUCGCUGGCGCCGGCUGGGCAACAUUCCGAGGGGACCAUCCCCUCGGUAAUGGCGAAUGGGACCCA [A8C G59A],1.07
20,GGCCGGCCUGGUCCCAGCCUCCUCGCUGGCGCCGGCUGGGCAACAUUCCGAGGGGACCCUCCCCUCGGUAAUGGCGAAUGGGACCCA [A8C G59C],0.923
